In US6689596B2, “High level expression of human cyclooxygenase-2” (Merck & Co., Inc., priority 1992, dated 2004):

Tested on: osteosarcoma 143 cells
Experiment: PGE2 synthesis by osteosarcoma 143 cells in response to arachidonic acid after treatment with growth factors/cytokines
Type: cell-based, human
Details: within a 3-hour period, 1% serum, relative to cells grown in the absence of these factors

| Molecule | levels of PGE2 synthesis by osteosarcoma 143 cells in response to arachidonic acid (15 ng/ml) | levels of PGE2 synthesis by osteosarcoma 143 cells in response to arachidonic acid (10 pg/ml) |
| --- | --- | --- |
| EGF: human EGF (CALBIOCHEM) (protein, UniProt P01133 23-1207, looked up, Pro-epidermal growth factor) Pro-epidermal growth factor: PQHWSCPEGTLAGNGNSTCVGPAPFLIFSHGNSIFRIDTEGTNYEQLVVDAGVSVIMDFHYNEKRIYWVDLERQLLQRVFLNGSRQERVCNIEKNVSGMAINWINEEVIWSNQQEGIITVTDMKGNNSHILLSALKYPANVAVDPVERFIFWSSEVAGSLYRADLDGVGVKALLETSEKITAVSLDVLDKRLFWIQYNREGSNSLICSCDYDGGSVHISKHPTQHNLFAMSLFGDRIFYSTWKMKTIWIANKHTGKDMVRINLHSSFVPLGELKVVHPLAQPKAEDDTWEPEQKLCKLRKGNCSSTVCGQDLQSHLCMCAEGYALSRDRKYCEDVNECAFWNHGCTLGCKNTPGSYYCTCPVGFVLLPDGKRCHQLVSCPRNVSECSHDCVLTSEGPLCFCPEGSVLERDGKTCSGCSSPDNGGCSQLCVPLSPVSWECDCFPGYDLQLDEKSCAASGPQPFLLFANSQDIRHMHFDGTDYGTLLSQQMGMVYALDHDPVENKIYFAHTALKWIERANMDGSQRERLIEEGVDVPEGLAVDWIGRRFYWTDRGKSLIGRSDLNGKRSKIITKENISQPRGIAVHPMAKRLFWTDTGINPRIESSSLQGLGRLVIASSDLIWPSGITIDFLTDKLYWCDAKQSVIEMANLDGSKRRRLTQNDVGHPFAVAVFEDYVWFSDWAMPSVMRVNKRTGKDRVRLQGSMLKPSSLVVVHPLAKPGADPCLYQNGGCEHICKKRLGTAWCSCREGFMKASDGKTCLALDGHQLLAGGEVDLKNQVTPLDILSKTRVSEDNITESQHMLVAEIMVSDQDDCAPVGCSMYARCISEGEDATCQCLKGFAGDGKLCSDIDECEMGVPVCPPASSKCINTEGGYVCRCSEGYQGDGIHCLDIDECQLGEHSCGENASCTNTEGGYTCMCAGRLSEPGLICPDSTPPPHLREDDHHYSVRNSDSECPLSHDGYCLHDGVCMYIEALDKYACNCVVGYIGERCQYRDLKWWELRHAGHGQQQKVIVVAVCVVVLVMLLLLSLWGAHYYRTQKLLSKNPKNPYEESSRDVRSRRPADTEDGMSSCPQPWFVVIKEHQDLKNGGQPVAGEDGQAADGSMQPTSWRQEPQLCGMGTEQGCWIPVSSDKGSCPQVMERSFHMPSYGTQTLEGGVEKPHSLLSANPLWQQRALDPPHQMELTQ | increased | – |
| IL1-α: human recombinant IL1-α (R and D systems Inc.) (protein, UniProt P01583 113-271, looked up) Interleukin-1 alpha: SAPFSFLSNVKYNFMRIIKYEFILNDALNQSIIRANDQYLTAAALHNLDEAVKFDMGAYKSSKDDAKITVILRISKTQLYVTAQDEDQPVLLKEMPEIPKTITGSETNLLFFWETHGTKNYFTSVAHPNLFIATKQDYWVCLAGGPPSITDFQILENQA | – | increased |
